Results on 2 molecules are retold here after patent US20230272024A1, “FIBROBLAST GROWTH FACTOR 7 PEPTIDE” (University of Florida Research Foundation, Incorporated, priority 2020, published 2023).

Entries after “also recorded” stand apart in the source; their conditions may differ. Where only a bound is given, the exact number is not on record here.

What all share (type): in vivo, mice
The test system of test [1] is pAKT. Put plainly: pAKT immunostaining of urothelium after cyclophosphamide. Conditions: two SC doses of 20 mg/kg at 72 and 48 hours prior to cyclophosphamide, 24 hours after cyclophosphamide.
For test [2], the system named is pS6. Nature of the test: phosphorylated p70S6 kinase (pS6) immunostaining of urothelium after cyclophosphamide. Conditions: two SC doses of 20 mg/kg at 72 and 48 hours prior to cyclophosphamide; 24 hours after cyclophosphamide; versus DMSO.
In test [3] the test system is pBAD. Put plainly: phosphorylated BAD (pBAD) immunostaining of urothelium after cyclophosphamide. Conditions: two SC doses of 20 mg/kg at 72 and 48 hours prior to cyclophosphamide, 24 hours after cyclophosphamide. The method, then:
(§1) Mice were administered two doses of 20 mg/kg of subcutaneous (SQ) FGF7-p (or 10% DMSO vehicle) at 72 hours and 48 hours prior to intraperitoneal (IP) injection of 150 mg/kg cyclophosphamide (n=3 female mice per group). Mice were sacrificed and bladders were harvested 24 hours after cyclophosphamide injection. The bladders were fixed in 4% paraformaldehyde in phosphate buffered saline and embedded in paraffin. The paraffin embedded bladders were then serially sectioned with a microtome. Hematoxylin and eosin staining was performed on the sections.

Test [4] concerns the target T1, FGFR2IIIb (Mus musculus, UniProt P21803).
T1 construct: from tissue; host or cells: bladder urothelium of FVB/N mice (in vivo)
Put plainly: pFRS2α immunostaining of bladder urothelium after subcutaneous ligand. Conditions: for onset of pFRS2α staining (initial staining observed) after administration: mouse, in vivo. The method, then: (§2) Uninjured mice were treated with 0.2 mL of 10% DMSO, 40 mg/kg FGF7-p, or […] full length FGF7 (n=2 mice per group, mice were about 25 g in weight) administered by subcutaneous injection. At the indicated times (Tables 1 and 2, FIGS. 1 and 2) bladders were harvested and immunostained for pFRS2α and pAKT, markers of urothelial protection. Immunostaining of bladder tissues from each group was repeated. Tables 1, 3, and 4 show the staining pattern for pFRS2α and pAKT over time in mice treated with full length FGF7.
(§3) After FGF7 binds to FGFR2IIIb, pFRSα appears first followed by pAKT. Activation of pAKT correlates with the anti-apoptotic/cytoprotective effects of FGF7 in the bladder urothelium.
(§4) Mice treated with DMSO control, full length FGF7, or FGF7-p were analyzed for activation of FGFR2IIIb and pAKT. Phosphorylated FRS2α and AKT levels were examined by immunostaining. After administration of full length FGF7, initial pFRS2α staining was observed as early as 15 hours later and pAKT staining was observed by 30 hours and peaked at 48 hours (see Tables 1-4 above). 48 hours after administration of 20 mg/kg or 40 mg/kg FGF7-p samples, strong FRS2α staining was observed.

In test [5] the test system is bladder urothelium. Put plainly: radiation-induced bladder urothelial apoptosis (TUNEL). The settings on record: two doses 20 mg/kg SQ at 72 and 48 hours prior to 10 Gray radiation, one day later. As to the method:
The ability of FGF7p to inhibit radiation injury as assesses. Two doses of FGF7p (20 mg/kg SQ) or 2.5% DMSO/PBS vehicle was administered to anesthetized female mice (N=2) at 72 hours and 48 hours prior to exposing the mice to 10 Gray (1000 rads) radiation. Instead of directly exposing bladders to irradiation, we transurethrally filled bladders with 300 μL of saline and focused the radiation beam over the bladder bulge on the depilated abdominal wall. One day later, we noted many TUNEL+ urothelial apoptotic cells in the vehicle-treated mice (FIG. 4, left panel). […] Thus, similar to KGF, systemic FGF7p inhibited or blocked radiation-induced apoptosis.

In test [6] the test system is bladder urothelium. Put plainly: cyclophosphamide-induced urothelial injury and apoptosis (H&E, TUNEL). The method, then:
FVB/N mice were administered subcutaneous doses 5 mg/kg, 20 mg/kg, 40 mg/kg of FGF7-p, 5 mg/kg of full length FGF7, or 10% DMSO alone (vehicle). After 24 hours, 150 mg/kg of cyclophosphamide was administered to the mice. Mice were the sacrificed and bladder tissues examined for signs of urothelial injury at various times.
as §1

Test [7] addresses T1, FGFR2IIIb. Nature of the test: pAKT immunostaining of bladder urothelium after subcutaneous ligand. Conditions: for pAKT staining: uninjured mice, full length FGF7 5 mg/kg, FGF7-p 40 mg/kg. The method, then:
as §2, §3, §4
To assess whether pATK expression was also increase in FGF7-p treated mice, bladders were analyzed for pATK staining at 72 hours. To confirm pAKT staining was robust in bladder of FGF7-p of treated mice at 72 hours, additional staining for DMSO and FGF7-p (40 mg/kg) treated animals at 72 hours and staining on old samples from full length FGF7-treated samples (5 mg/kg) at 30 hours, 48 hours and 96 hours (n=2 mice per group) was performed. […] Further, robust pAKT signal was seen throughout the urothelium.

Setting [8] is: two SC doses of 20 mg/kg at 72 and 48 hours prior to IP 150 mg/kg cyclophosphamide, 24 hours after cyclophosphamide.

T1 sequence (P21803 22-707 isoform P21803-2 limits assumed): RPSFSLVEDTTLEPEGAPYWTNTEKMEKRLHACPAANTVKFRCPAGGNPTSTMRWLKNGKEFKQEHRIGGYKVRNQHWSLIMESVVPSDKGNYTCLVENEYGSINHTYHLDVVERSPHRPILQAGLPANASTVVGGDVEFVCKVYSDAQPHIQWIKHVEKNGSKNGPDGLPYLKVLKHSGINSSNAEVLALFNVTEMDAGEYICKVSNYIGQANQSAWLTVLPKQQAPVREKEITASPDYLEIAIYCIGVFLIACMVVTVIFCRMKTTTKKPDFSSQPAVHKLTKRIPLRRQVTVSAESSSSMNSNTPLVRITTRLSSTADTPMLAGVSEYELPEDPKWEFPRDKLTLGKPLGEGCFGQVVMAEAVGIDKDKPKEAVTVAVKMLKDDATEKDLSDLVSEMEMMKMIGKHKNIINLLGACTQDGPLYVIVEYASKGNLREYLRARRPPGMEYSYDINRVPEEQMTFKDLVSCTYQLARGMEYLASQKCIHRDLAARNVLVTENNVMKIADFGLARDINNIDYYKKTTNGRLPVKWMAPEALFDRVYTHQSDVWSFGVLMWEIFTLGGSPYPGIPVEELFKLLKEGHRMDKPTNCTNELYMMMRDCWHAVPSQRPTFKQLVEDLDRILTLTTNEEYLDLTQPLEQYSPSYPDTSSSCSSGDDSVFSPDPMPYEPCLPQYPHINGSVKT

With “YASAKWTHNGGEMFVALNQ (listed as Homo sapiens) [FGF7-p, chemically synthesized 19 amino acid peptide of FGF7, FGFR2IIIb agonist]”, the pAKT urothelial staining result in test [1] is “strong signal throughout the urothelium”. In test [2], the pS6 urothelial staining entry is on record as “much stronger staining”. Moreover, the pBAD urothelial staining result in test [3] is listed as “strong staining”. For the same molecule, the pFRS2α staining result in test [4] (24 h after SC dose, uninjured mice, full length FGF7 5 mg/kg, FGF7-p 40 mg/kg) is “weak and patchy; also recorded: Light/patchy (similar to control)”; in test [4] (48 hours after administration of 5 mg/kg), “Less, but still significant”; in test [4] (48 hours after administration of 20 mg/kg), “strong”. Also, the “onset of pFRS2α staining (initial staining observed) after administration” value in test [4] is on record as “delayed”. For the same molecule, in test [5], the “radiation-induced urothelial apoptosis, TUNEL staining” value is “many regions with almost no (middle panel) or minimal urothelial apoptosis”. In test [6] (single SC dose 5, 20 or 40 mg/kg 24 hours before 150 mg/kg cyclophosphamide, at 48 hours, versus DMSO alone), the “protection against urothelial apoptosis” value was “no signs of protection against urothelial apoptosis”. Besides, in test [6] (setting [8]), the “urothelial apoptosis, TUNEL staining” value is “intact and non-apoptotic urothelial cells”. In addition, the “urothelial injury, hematoxylin and eosin staining” value in test [6] (setting [8]) was “almost no urothelial injury”. For the same molecule, the pAKT staining entry in test [7] (24 h after SC dose) was “absent”; in test [7] (48 h after SC dose) it was “absent”; in test [7] (72 h after SC dose) it was “robust”.

B1: full length FGF7: Fibroblast growth factor 7 (keratinocyte growth factor), full length ligand for FGFR2 IIIb isoform, used as comparator (protein)
chain: CNDMTPEQMATNVNCSSPERHTRSYDYMEGGDIRVRRLFCRTQWYLRIDKRGKVKGTQEMKNNYNIMEIRTVAVGIVAIKGVESEFYLAMNKEGKLYAKKECNEDCNFKELILENHYNTYASAKWTHNGGEMFVALNQKGIPVRGKKTKKEQKTAHFLPMAIT
With B1, the “onset of pFRS2α staining (initial staining observed) after administration” value in test [4] is recorded as not above 15 hours. In test [7] (mouse, in vivo), the “pAKT staining first observed after administration” value is not above 30 hours and the “peak of pAKT staining after administration” value was found to be 48 hours.
